Measured values: the DeepSol protein solubility set

Assay: soluble on expression in E. coli; label from the status in PepcDB or PDB records

Sequence | soluble on expression in E. coli
MPREYDNLICYKQLSIDDHGKLKFFLEKHSTKEGTWGKLSLSEGEIDFIFQNGLGQELSRIRLDKNNRQLSIPPASWHKIIPISASFNAQLGFYCKPHRYFNKKYGLTEVHRDLLYVYHTYLSHLGSLTTLDVGCGSGRNLLYLTQLGHIVTGIDINQTALENIQIIAQKENLSLLNILSQDLNQPQALAPDHYDFVCSTVTLQFLNASRIPSLLIELQEATKKNGYHFLVFPVQSELYSLPSSFTFLPKQEELYHFYQDSGWSILEYKESVGHLHKQDEMGRPVQGLFALLLAQKVLLEHHHHHH | not soluble
MPRIRCERCARPASHCLCALIPSLPSRTRVLVLQHPSEVGHALNTAGLAVLGLCNAELRVGERFAEETWRVPGYRACLLFPGEQARALAEMAAEAAGEPLLLVVPDGTWRKARKLLHLNPALAALPRVSLAEGMASRYRLRKAPGEGALSTIEAIAAALDELEAPRTHEALLKPFDALIEGQIAAMGEDTYRRNHLSQERRRRLEHHHHHH | soluble
MPRLTDDDKKLLLMLAREAIVTYVREGITPATELSVPSLCEHYGCFVCIKKGGELRGCIGNFTSSQPLYQLVREMAVSAATRDPRFYPMTSKDITDFSLEISVLSPLEKISSPEQITVGTHGIYIEKNFFRGVLLPQVATEYGWDRDTFLMQTCVKAGLKPDDWRDGADIYIFSAEVFSLEHHHHHH | not soluble
MPRSLANAPIMILNGPNLNLLGQRQPEIYGSDTLADVEALCVKAAAAHGGTVDFRQSNHEGELVDWIHEARLNHCGIVINPAAYSHTSVAILDALNTCDGLPVVEVHISNIHQREPFRHHSYVSQRADGVVAGCGVQGYVFGVERIAALAGAGSARA | soluble
MPSGGQRKHTISNKTRKRPGKDLDQIHEDLKPEKAAKLLQQEIDYDLPGNGQFYCIECERHFVDEKTRQLHRKTKLHKNRVKTLKEVPYTQAEANAAGGSGFFPAITLKTRVELPKQPEIPIPVVAET | soluble
MPSVKIGIIGAGSAVFSLRLVSDLCKTPGLSGSTVTLMDIDEERLDAILTIAKKYVEEVGADLKFEKTMNLDDVIIDADFVINTAMVGGHTYLEKVRQIGEKYGYYRGIDAQEFNMVSDYYTFSNYNQLKYFVDIARKIEKLSPKAWYLQAANPIFEGTTLVTRTVPIKAVGFCHGHYGVMEIVEKLGLEEEKVDWQVAGVNHGIWLNRFRYNGGNAYPLLDKWIEEKSKDWKPENPFNDQLSPAAIDMYRFYGVMPIGDTVRNSSWRYHRDLETKKKWYGEPWGGADSEIGWKWYQDTLGKVTEITKKVAKFIKENPSVRLSDLGSVLGKDLSEKQFVLEVEKILDPERKSGEQHIPFIDALLNDNKARFVVNIPNKGIIHGIDDDVVVEVPALVDKNGIHPEKIEPPLPDRVVKYYLRPRIMRMEMALEAFLTGDIRIIKELLYRDPRTKSDEQVEKVIEEILALPENEEMRKHYLKR | soluble
MPTLPRAANSRWRSLKIGLAPDLGLDDNGSLLLDFGPRQFTVSFDETLKPFVRDVSGSRLKDLPKPNKSDDETRANDAVNRYKLLKKDARTIAAQQVARLESAMCLRRRWSLENFQLFLVEHPLVRHLTRRLIWGVYSAENQLLACFRVAEDNSSSTADDDLFTLPEGDISIGTPHVLEISPTDAAAFGQLFADYELLPPFRQLDRNSYALTEAERNASELTRWAGRKCPSGRVMGLANKGWIKGEPQDGGWIGWMIKPLGRWSLIMEIDEGFAVGMSPAELSAEQLLSKLWLWEGKAERYGWGSNSTQEAQFSVIDAITASELINDIEALFE | not soluble
MPTNCAAAGCATTYNKHINISFHRFPLDPKRRKEWVRLVRRKNFVPGKHTFLCSKHFEASCFDLTGQTRRLKMDAVPTIFDFCTHI | soluble
MPTTPRSQPGTVGKDMAGALAGRHNDMPPISSNYQGRPGNANPNYRYQPSADNARNVADWTKSHMKTARENAAAKR | not soluble
MPVANDAPGVDIEGTDADAESGDLPINELFQSLQGEGRLAGVPSVFVRTSGCNLRCWFCDSYHTSWEPTHDWFTVDDVLAAIEEYDANHVVLTGGEPLIHDSSEDLLARLTDRGYHTTVETNGTVVPDAPIDLASVSPKLASSTPTADRDPDGNGEWADRHEERRLDVPTLAELVETYDTQLKFVVTGREDMAEIERLLKRLRDAASTCVRDDDVLLMPEGQTRDQLEATRETVADLALEHGYRYTPRLHVDLWNDAPGT | not soluble
MPVERVIDRPTPEEHLLERILATENMDLAWKRVRANKGAPGVDGVTIDAFPERFRPLWGDIRASLATGTYQPQPVLRVEIPKPTGGTRPLGIPTVLDRLIQQATAQVLTPIFDPEFSASSFGFRPGRSAHNAVRQLREYLRQGYRIAVDIDLAKFFDTVNHDLLMTMVGRRVRDKRVLTLIGRYLRAGVEVDGRLEKTRMGVPQGGPLSPLLANILLDHLDKELESRGHKFVRYADDFVILVKSERAGERVMGSVRKYLTNKLKLTVNEDKSKVARSGDLSFLGFVFKGTKILWSDQAYKEFRRRVRKYTGRSWFVSMEYRLNKLSTYLRGWMGYFGIAEAYRDIPEIDGWIRRRVRLCYWKQWRWCRTKIRNLLKLGVQLGTSIRAGLNRNGPWAMSRRLAAQHGMTNQWLKDQGLVSVKELWVKIHYPATARLEHHHHHH | not soluble
MPVFSINVNVKVPAEKQNEILKELSTVLGKLLNKPEQYMCIHFHEDQGILYAGTTEPAGFAVLKSIGGVGSAKQNNAISAVVFPIIEKHLGIPGNRLYIEFVNLGAADIAYNGQTFA | not soluble
MPYIILEDQTRLYYETHGSGTPILFIHGVLMSGQFFHKQFSVLSANYQCIRLDLRGHGESDKVLHGHTISQYARDIREFLNAMELDHVVLAGWSMGAFVVWDYLNQFGNDNIQAAVIIDQSASDYQWEGWEHGPFDFDGLKTAMHAIQTDPLPFYESFIQNMFAEPPAETETEWMLAEILKQPAAISSTILFNQTAADYRGTLQNINVPALLCFGEDKKFFSTAAGEHLRSNIPNATLVTFPKSSHCPFLEEPDAFNSTLLSFLDGVIGKS | not soluble
MPYKAKSDLPDNVRNVLPAHAQDIYKEAFNSAWEQYKDKADRRDDASREETAHKVAWAAVKNDYEKGEDDKWHKKK | not soluble
MQAKLFMIPWLIELVISQRAPSPPNPTPSAQVLTNDLLVDAHRRHFLDMLRRQQQINDALLLNNALLHPHPLPPLHIPANPAIQELNLPPAPPLFNPFIPAQVANQGPTSKLGTYGKDDEPEKKSEELKETPEEKEGTVGAPVRTDLVKKTLAGVKTVSIQKKGDVTGETLTTMEVVAPTTSTISPEDLEVVQLFKKLNLSKEETKSIVERVEQVVREKLMSKMDTSSTTTEVTTVVTTPSTTTTTTSTTQAPTTTTKEFIEEEIEEEDYSVATTAPPPQMHIRSEENLILQRNNLKHHPIKLQEKKLPESLESEEISQGSIKTSLTHLPIFVANEEEDVASLNPKSALHKRILIASQDREKESDRDLLVDFATGAPLDLSEPDVTKSKYEASPVATSPATLAPAQVTTRPVAPPRLNYHERTDFERLASDYRRRLENTGDINKILQKISENAYISLVERGGRRRLFGS | not soluble
MQARYRDWGIFKYWFRAVEKNAPWVHKIFIITDHQNPKFLNKHSSKIVFVNHEDFIPNEYLPTFNSDAIEIGIQNIPGLSEHFVFFNDDMFINKPVKPIDFFDGNIPKDSGVMGPQFPISNSITHITVNNMEIINKYFLKKKVLRKYFFKFFNWRYGKDNIRTATALPWQVFIGFYDMHIPISFLKSTFDNVWSEVGNLLSQNYQHRFRSQLDYSVWLMRYFQLASGNFFPRRTRFGKYYNLGEQTEEIINDIKTGKHALIVLNDQESINDYPYEKKLVNEVFERRYSRLEHHHHHH | soluble
MQASASNSSSYTVNASVLHVRAGSSTSHDIISRVYNGQSLNVIGEENGWYKININGKTGFVSGEFVSKNGTSNSNVSTTGGKNKVTADVLRVRTAPNTSSSVSGRVYEGQTLNVIGQENGWVKINHNGQVGYVSGEFVSGVSSNAGSSNSNTNNNNQESVKPASGNYTVNVSSLRVRTGPSTSHTTVGSVTKGQVVQVVGEVQDWFKINYAGQTAYVSKDYVTKGGSSDNVTQGNNQNNNQNNNVTVQTGGTYVVNATSLRVRTGPATYHSVIGGVLNGTTLNVIGSEGSWFKVNYQGKTGYVSSEFMKFVKGGTTTPEQPKQPEQPNQGAIGDYYINASALNVRSGEGTNYRIIGALPQGQKVQVISENSGWSKINYNGQTGYIGTRYLSKTPVGGAVDNNKPNNNQNNNQNNNNNTGNNSGNSSSILAYAKGMQGVPYVWGGTSANGVDCSGYIYHVFKKFGHNISRQSVAGYWGSLPQTSNPQPGDLIYFQNTYKSGPSHMGIYLGGGSFIQAGDKGVAIASLSNSYWKSHFLGYTKAPLEHHHHHH | soluble
MQAVNTTSGGAVGVERQQYMFSMLSTDEVNQMYAQSYQQTLGEASSKGVLDKSSADAKRVQAIANRLIAQAPKFRPDAAQWDWQVNVIKSDELNANCGPGGKIIVYTGLIDQLKLTDAEIAAVVGHEIAHALREHSREAMSKAYGVEMARQGAGAIFGLGQSSMAMADTVVNYAMTLPNSRANENEADLIGLELSARAGYDPNAAITLWNKMSKASEGAPPEFMSTHPASASRIASLQAAIPKVMPLYQAAAKPLEHHHHHH | soluble
MQAYTQTLIHRLDKLNRQRIERALALMDLQSQRVFHLIPALFQFNHPLIPGYFSADTPFGIHLFEANPIQQQFIDDAQLTLGEPLTPADNPAILGLYTMGSTSSIGQSTSSDLDIWVCVSAQMSCEARDNLSSKCLLITDWAKSQGVEANFFIMNEERFRHNHSEALSGENCGSSQHLLLLDEFYRSAVRLAGKRLLWQIVPPEMEECYDEYVHELCSNGYLNCNEWIDFGKLNRIPAEEYFGANLWQLYKSIDSPYKSVLKAILLEAYSWEYPHTQLLSIDSKRRFFADEPDLYGMDSYYQMLEKVTRYLVRIGDSTRLDLVRRCFYLKTHEKLSREPGVGSMPWRREALRELTSEWQWSADLIAELDNRRHWKVEQVKVVHHALLDALMLSYRNLIQFARRNDITSAISPQDISILARKLYAAFEVLPGKVTLLNPQISPDLHEPDLSFIEVCAGRTNKPGWYLYKQPLQAQRLIGQPYLEHNEYLSKLVAWAFFNGLITESTRLHAVVREAQLDIDKFYQMVSDLRNTFSLRKRRPTMQALANPCEISQLAMFINFEHDPTSELSGKALKVDLKNIDIFSFGAEQKCLVGSVDLVYRNSWQEVRTLHFEGQTAMLDALKTVLGKMHQDALPPESVDVFCYSKNLRGVMRNLVYQLLAECIDLRLKPMEQEKRRRFKALRMGDQMYGLFFERRGVSVQKLENSVDFYRSISTNKLKGSPLLMLDRDQDYPLPAVVDSFASEGLVQFFFEDTEKGFNIYVLDEANRVEVYHQFNGEKDEMIASVNSFYTSMLDDSNKLGAKSINFNLPQYYQIIHPEEGETYVVPYRNDSAVYSKPSQVVNA | not soluble
MQCNDVQATEPDIKVSLTRVGVTNLKKLVKLKRKNKRDIVLLPTFEVFVDLPSSQKGIHMSRSPEVIEEVVENILLEKEIYGVEDLSVEIVMKLFEKHEYATRAEVMLYSDYMMEEKSPVTKKDSQEIGKIIARAYGVKDSNGKIDVKKMVGAEVVGITACPCAQNMLKENAVVSLTEKGFSSEDIEKILDSVTIATHNQRGIGTVMIEVPNGYTVGISKIIKIIKDSMSGEVYELLKRSDEAFVVEAAHKNPKFVEDCAREMIKRVVDVFDYLPEDTQVLVRQVNKESIHRHDAFAERNSTIRELRDELKTLTN | not soluble
